Target: thrombin (factor IIa)

cysteine-rich anticoagulant protein (CRA), recombinant, mature form with C-terminal His-Tag (natural protein)
thrombin time (TT), clotting time of control plasma, preparation CRA P1 at 1 µM and 5 µM (21.8 s to 66.8 s; control without protein 14.3 s and 11.7 s): 66.8 s
thrombin time (TT), clotting time of control plasma, preparation CRA P2 at 1 µM and 5 µM (16.6 s to 30.7 s; control without protein 14.3 s and 11.7 s): 30.7 s
thrombin time (TT), clotting time of control plasma, preparation CRA P3 at 1 µM and 5 µM (20.1 s to 43.3 s; control without protein 14.3 s and 11.7 s): 43.3 s

From paper PMC12731043
